# Experimental data published in the DeepSol protein solubility set.
# Test: soluble on expression in E. coli; label from the status in PepcDB or PDB records
row,Sequence,soluble on expression in E. coli
1,MAAHSFPLLRLPPKNLASVLRQVEIIEQIGLSLLSNKTKEYIRKFCDFKGFELSVWLHPYAVELELFKNGEGATHCSFRDGRACEHNEYPDGFTFDASQFFDMKSCLKHLLYILNPSKIAFLFYIQSNEVSDESQFQMTVDCLKGVKILKFSAKCIPQMNHIVRLVNAFPQTNRLSLVKNSNQPFQLSTLRQILHRKIQKLNLVIDITLNELLLNNSATSDFYSERLRGKDINLFLKHWAAGLKPELEYISFQISAVNFVESTILAGIPH,not soluble
2,MDCMRKLDRVDMQLVKILSENSRLTYRELADILNTTRQRIARRIDKLKKLGIIRKFTIIPDIDKLGYMYAIVLIKSKVPSDADKVISEISDIEYVKSVEKGVGRYNIIVRLLLPKDIKDAENLISEFLQRIKNAENVEVILISEVRKFEII,soluble
3,MAHHHHHHMKDYNVTMEVFVQEPDDYVQDQRLLEEILNLTAHQALEAINKPLHEGVLSLSGNVGTMKEKDTITPLARGKPNGVLTQVPTEARREAEERLRREEEERLGGTQEMKFTFSGTIEDVLFRGEFRYKEMKLNDFLLLRFGGRGVVATNRSVLLEEFFKEPARYVPGARVLNEIKITVRYLRIEGTVREEMDLEEVVRMLHHESVFPLSNGRNMKEMTQPLPLQGEN,not soluble
4,MGSDKIHHHHHHMKWNSNLYDHKHSFVAEYGKSMINFVNVGKDQKILDLGCGTGVLTNELAKNGATVIGTDLSKNMIDKAKTNYPNLIFQVKDATNLSFKNEFDTVFSNAVFHWISNQEKLLHSIYTCLKDNGTLICEFGAQNNISQIQTAFEKVIEQKGYSYCSPFFFPSKEEYKLLLDQAGFEVKHIIEYDRPTPLADGEKGLRNWICQFFASDLLEFSDEQKEQILFETEKLCKNSIWKNNQWVADYRRIQIIAVKNKNNGTK,not soluble
5,MMNADCKTAFGAIEESLLWSAEQRAASLAATLACRPDEGPVWIFGYGSLMWNPALEFTESCTGTLVGWHRAFCLRLTAGRGTAHQPGRMLALKEGGRTTGVAYRLPEETLEQELTLLWKREMITGCYLPTWCQLDLDDGRTVNAIVFIMDPRHPEYESDTRAQVIAPLIAAASGPLGTNAQYLFSLEQELIKLGMQDDGLNDLLVSVKKLLAENYPDGVLRPGFALEHHHHHH,soluble
6,MSLRVLFCSSEIYPYAKTGGLADFSFCLIKYLKKYGVKVKGVMPYYKTLKAENLRKTDKGVTLNLNGKDYTFEVYESEDCYFLRNDELFGRDYIYGPPGWGYEDNDIRFGGFSRAVSELISTGQLEADVVHANDWQTALIPLFLKEVFKTPVKTVFTIHNLAYQGLFPKETVERVGIPPYLFHMEAVEFWGLVNFMKGGIVFSDLITTVSPTYAKEIQTQEYGYGLEGVLKKYSYKLRGILNGIDYEVWNPEKDKYIYQNYSLRNYSKKFKNKEFLSKELGIEAEKPLISFINRFTHQKGVELILNCAEEMSKLNANFVFLGTGEYENAFLDVSKIYKNFKVFAEFNEGFARKLYASSDFILMPSYFEPCGLTQMIGMRYGCVPIVRKTGGLRDTVKDISEGGYGITFEEPSKETFLCSLKRAIELYENAKKFRNSVKIVMSLDFSCDRMTKEYIECYEEVQSHQEGHHHHHH,soluble
7,MGSDKIHHHHHHMSKPSPRHLWHVQPGSNVITHPLKQSHYLNVELMSLEIVAEYPRPPALVACSDHVIVEALGTRICETHDCLRVLETFHPPTYYLPPKAMRKDLLIRSRRSSFCEWKGIANYWDLVIADKRLEGAIWSYPDPTPTFRALTGWYALYPGRMDHCSVNGETVIPQPGQFYGGWITSQVVGPFKGDPAHPQLI,not soluble
8,FSDIASLQRFIKLNQSDWLFEMLATERFTSYFQPIVSIKDTSQIFGYESLLRGLDEEGNLMLPTPIMELATEAGLIPQLDQIARLSAITEFSRYKVSGHIFINFAPTSLYDPAFCLSSSVEAIDTAEISHDRVVFEVVESDNPQDLTHLKAVLKYYRDAGFLVALDDLGSGYSSLNLLHQLRPDFIKLDMELIRDVHQDLYKASITEKLLEITQKLNIQTVAEGIECIEELNWLRERGANLAQGYLIAKP,not soluble
9,MKPTKARLRNHVITLKNSVEKEIRAKKTKAIRAHIESEWLKIDPEFEKLHRYFSSLRIRQNVKNELVDLLEENSLEIWSFYRDTDARDFETYKKGFLEKLKYNSIKGLAKVEAVYDQEIQEVRETYNAIIANVERVPAKQGVAYLEELGINVDVFKEEEAQLPMIAVDKSKLRLPSETADSK,not soluble
10,MGSDKIHHHHHHMLKLYSFGPAANSMKPLLTVFEKGLDVEKHRLDPAKFEHHTDWFKAINPRGQVPALVDGDKVVTESTVICEYLEDEYPTEVALRPADSFGKAQMRIWTKWVDEYFCWCVSTIGWHRYVGNMVKSLSDAEFEEKVKAIPVIEQQVKWRRAREGFPQDMLDEEMRKIAYSVRKLDDHLADHEWLVPGQYTLADICNFAIANGMQFGFAELVNKQDTPHLVRWIEQINERPAVKQMFAQVELEKLGPRE,not soluble
11,MILHPRPSPIAAAMYQLRDIGVDAIILHGPSGCCFRTARLLEIDGIRVFTSAMGENDFIFGAMDKLRDVIAEVLEYLKKETPKSEKYKIGIVGTCASMIIGEDLESLIDDFDDIIIPVDIHSGLVDNTVGAIRAMDGALNAGLIDYSEYLEHHHHHH,not soluble
12,SEGSGEQPGPQPQHPGDHRIRDGDFVVLKREDVFKAVQVQRRKKVTFEKQWFYLDNVIGHSYGTAFEVTSGGSLQPKKKREEPTAETKEAGTDNRNIVDDGKSQKLTQDDIKALKDKGIKGEEIVQQLIENSTTFRDKTEFAQDKYIKKKKKKYEAIITVVKPSTRILSIMYYAREPGKINHMRYDTLAQMLTLGNIRAGNKMIVMETCAGLVLGAMMERMGGFGSIIQLYPGGGPVRAATACFGFPKSFLSGLYEFPLNKVDSLLHGTFSAKMLSSEPKDSALVEESNGTLEEKQASEQENEDSMAEAPESNHPEDQETMETISQDPEHKGPKERGSKKDYIQEKQRRQEEQRKRHLEAAALLSERNADGLIVASRFHPTPLLLSLLDFVAPSRPFVVYCQYKEPLLECYTKLRERGGVINLRLSETWLRNYQVLPDRSHPKLLMSGGGGYLLSGFTVAMDNLKADTSLKSNASTLESHETEEPAAKKRKCPESDS,soluble
13,YKTPLLKALSAVGKAAVDVCRYFNPEVKKVVAYLGWEQEYFLVDEGLYAARPDLLLTGRTLMGHEASKNQQLEDHYFGAIPTRVAAFMKDLEIQALELGIPVKTRHNEVAPNQFELAPIFEECNLAVDHNMLLMSLMRKVARSHGFRLLLHEKPFKGVNGSGKHNNWSLGTDTGVLLMAPGKTAEDNLRFITFIVNTLMAVYHHNGLLKASIMSATNAHRLGANEAPPAIISSFLGKQLTQVLDHIEESGNDDLVSLAGKQGMKLDIPQIPELLIDNTDRNRTSPFAFTGNRFEFRAVGSEANCASAMIALNAAVAEQLARFKQDVDALIEKGEPKISAIIEIIRRYIKECKPVRFDGNGYSDEWKAEAAHRGLDCETSCPLIFDNYLKPASIAMFESTGVMTRKELEARNEVKWETYTKKIQIEARVLGDLAMNH,not soluble
14,GPGSMQSDFDNVETELRDIEETFTTGRMNAFGSASTQDAFVHELKRIAEIETQVFYRTCALLKSSHTNEHQLVTNMYASAQPPPQSQRSGPATTSPSSNLGDGSFRANSSGLESSMYRGPMNQRSQSSFASTVAGGLSGAPPSNSNIHSSSASRRQSRQGWENVSAGSPFPGVGDGGASSGAAPHIHRSEWGNEDGFADKAFEDVAAHFEELESQFFSLGDYLREISKHVIRLNDMSKQVNNGVNYGANGGVTGAPAAAANANGSSNNTDMLQTVGSMGRQDYPGSFIDPTSIGGGSGYGMDGPHS,soluble
15,MGSDKIHHHHHHMEELFTYKEFIKMMQNYGIRHKKRKLRRNENVMTNSSSPNSVILLIKGYICSYTCESPETLLSVFEPGVFLSYSILEDLPPLVTNIALSEECIVYEYEKEDIEYALSLFPENFGFQYFFLKKIGRHLYYKALLNAKDHQEKLYYTIKYLGKLIGEKDGKGNIVLPPEITIKILIEYSTLSKAAFYRQRIRLIEEEILKPHKKTFLVPKKVVKHYEKQLTSI,not soluble
16,MIFKSNFTTRAGLAALALSFAAAGAPSVASAQQAGGKPPQGWFKVCTKQEDNDVCIVQNLLTANNGQLVTAVGLITVSGKVNRKVMQVSVPSARMIPPGVQMQIDGGKGVKLDYAICMPDKCVAEAPLSDALIAQLKKGNEVVFTSVNFQRAPNPIKMSLEGFTGVFDGEPIEQSQLEERQRLLQEEMQKKAEDARKKLEEAQKAAKQQ,not soluble
17,MSLASTVVIKEGSGSGAVAACTVPQVLEQIAQSFPESIAAISERGRITFAELEFRSNQLARLLVKRGVKVGAIVVLMTGRSIDTLIGMTAILKAGGVYMPLDVGLGPEAISGAIQDAQPALVLTEHQPALIDAIEQRRLSDELDASRLEPGDPLALELTPSLPAYVMFTSGSTGRPKGVVVPHRAIVRLVVDTDFMTLSPATVMLHAAPLAFDASTLEIWGPLLNGGQIVIVEDAVLSVDRIAETLGRFSVNAAWLTAGLFHLMVDERPEALSGLTTLLAGGDVLSPAHVRRAMALLPDCTIVNGYGPTENTTFTCCYSIPRTGWGDGPVPIGFPISGTSVHILSDTLEPVADGEEGQLCAGGIGLALGYLNRPELTAEKFIVDPLSDDPAARLYLTGDYVRRRSDGAIEFRGRRDRQVKINGVRIELDGVEQALRQDPVLADAAVVLSADRGDAKRIVAFLKPLPGDAAGDLEAGVIRRLKEQFPAQAIPSTIKVVDELPLNKNGKIDRAKLLSDLIATEQLGAGTDEEDFSDDSVGSIVADIWSALLGKSVDARANLFDLGATSLQMIAAHERIQAAIGIRFPVTDLFAHPSIAEFQACLDGASHRSLAIAGAAREGHHHHHH,soluble
18,MLQSINQLNPDIVVITGDLTENGFSAEYDGVKMFIDRIECKNRVLVPGNHDSKNAGYLHFEDLFENRFQTRNLGNMTIVGADSSQPDIDDGHLGRENYGWIKEAFSGENFKVFALHHHLVPIPLAGRENTVLVDAGDVLDLLNKCRVNLVLCGHCHIPHVWNLNNMLVVNAGTFCSSKTRGKTTQCFNLIQAENSEKNGNGESEKIEDGGWKVRVSRVFPQGNIEFITETVMLEHHHHHH,not soluble
19,MGSDKIHHHHHHMAVVQHHLPLSARLPARGIFEDDWRDRPSKRHPYPVILIHGTGVTKGDWMELGHALRSLGYAVWAPDFGMRSTAAVAESAAQVGAYIDAVLTVTKAKKAIVVGHSQGGILARYWMHNLDGANKVSHLISLAVPHHGTSHGGMMSPLGRTPRGTAVIDSLITGFFGASGFEMLHDSELIAQLNEHGDTLPYVYYSCIATRSDTIIQPVESCFLHGKLVRNIYAQAVSKHAIILHEDMPHDPRVRRLVIAEIERVERLTIPS,not soluble
20,MSLDIADVAKRTGVPASTLRYYEKKGLLKSLAGRGQRRQFAADVADRLALIALGQAAGFSLDEVGAMLVDLQVDRQMLMAKADELDARIKRLQAMSKGLRHAAQCPEKDHLACPKFQQLMKLSAAGALGEKQARTKAFVTDEGHHHHHH,soluble
21,MTTEKEMKQIQNEFKERMDEGELLNCMRCGFCLPSCPTYIESGFQETHSPRGRIALMKAVADGMIEPDEDVERSLSLCLGCRACEPVCPSGVKYGQLLEEARDIIHQNKKHSLGERVMRKTAFHELFPHQNRMRSAVSLIGLYQRSGLQTAVRKSGMLRVLPEHLRTMEAVLPDVPKSKDMKHRPRFLPSIGPMKKRVAFFSGCLMDTMFLPTNNATLKLLQLAGCDIVIPPEQACCGALHGHSGEKNTGKELAKQNIAAFEALDVDAVITNAGGCGAFLTEYDHLLKDDPEWSERAAAFVQKLKDFSSVLVELDFHQMDLALETPQVVTYQDSCHLRNVMHTSLEPRQLLKSIKGAEFKEMEKADSCCGSAGIYNIVEVEMSMKILDSKMAAVKATEAILIVTANPGCLLQMKLGIEREGLSGKVRAVHLADLLLEAAGHKTS,not soluble
